Results on one molecule are retold here after article doi:10.1101/2024.10.02.616340 (bioRxiv, 2024).

Experiment [1] addresses T1, yeast Mcm4 (subunit of CMG) (budding yeast, UniProt P30665 1-933).
T1 sequence: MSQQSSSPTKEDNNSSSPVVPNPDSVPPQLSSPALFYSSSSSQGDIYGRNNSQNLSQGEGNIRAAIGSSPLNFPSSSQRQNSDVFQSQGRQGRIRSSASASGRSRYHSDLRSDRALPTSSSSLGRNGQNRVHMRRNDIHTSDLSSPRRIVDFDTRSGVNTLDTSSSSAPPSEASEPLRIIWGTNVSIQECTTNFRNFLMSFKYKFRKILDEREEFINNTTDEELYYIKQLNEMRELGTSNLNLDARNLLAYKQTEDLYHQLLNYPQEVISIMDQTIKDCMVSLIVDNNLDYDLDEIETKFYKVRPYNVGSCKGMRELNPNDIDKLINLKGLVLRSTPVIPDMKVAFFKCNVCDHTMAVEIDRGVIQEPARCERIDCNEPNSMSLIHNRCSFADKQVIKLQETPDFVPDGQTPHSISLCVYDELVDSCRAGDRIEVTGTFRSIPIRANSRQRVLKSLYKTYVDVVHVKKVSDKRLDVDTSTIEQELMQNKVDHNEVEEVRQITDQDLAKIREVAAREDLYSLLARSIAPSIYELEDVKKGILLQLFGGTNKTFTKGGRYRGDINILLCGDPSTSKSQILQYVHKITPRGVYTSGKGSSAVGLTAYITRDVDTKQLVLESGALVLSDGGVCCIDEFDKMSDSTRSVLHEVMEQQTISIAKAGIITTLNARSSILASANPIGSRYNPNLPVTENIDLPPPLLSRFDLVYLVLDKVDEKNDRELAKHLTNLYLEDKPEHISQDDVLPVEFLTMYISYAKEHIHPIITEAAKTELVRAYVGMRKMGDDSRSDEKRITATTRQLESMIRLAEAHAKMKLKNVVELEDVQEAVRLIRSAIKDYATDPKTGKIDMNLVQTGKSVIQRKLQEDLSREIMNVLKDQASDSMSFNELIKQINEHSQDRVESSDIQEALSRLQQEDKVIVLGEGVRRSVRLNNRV
Kind of experiment: cryo-EM structure.

In experiment [2] the target is yeast Mcm3 (subunit of CMG) (budding yeast, UniProt P24279 1-971). Kind of experiment: cryo-EM structure.
Chain of yeast Mcm3 (subunit of CMG) (P24279 whole entry): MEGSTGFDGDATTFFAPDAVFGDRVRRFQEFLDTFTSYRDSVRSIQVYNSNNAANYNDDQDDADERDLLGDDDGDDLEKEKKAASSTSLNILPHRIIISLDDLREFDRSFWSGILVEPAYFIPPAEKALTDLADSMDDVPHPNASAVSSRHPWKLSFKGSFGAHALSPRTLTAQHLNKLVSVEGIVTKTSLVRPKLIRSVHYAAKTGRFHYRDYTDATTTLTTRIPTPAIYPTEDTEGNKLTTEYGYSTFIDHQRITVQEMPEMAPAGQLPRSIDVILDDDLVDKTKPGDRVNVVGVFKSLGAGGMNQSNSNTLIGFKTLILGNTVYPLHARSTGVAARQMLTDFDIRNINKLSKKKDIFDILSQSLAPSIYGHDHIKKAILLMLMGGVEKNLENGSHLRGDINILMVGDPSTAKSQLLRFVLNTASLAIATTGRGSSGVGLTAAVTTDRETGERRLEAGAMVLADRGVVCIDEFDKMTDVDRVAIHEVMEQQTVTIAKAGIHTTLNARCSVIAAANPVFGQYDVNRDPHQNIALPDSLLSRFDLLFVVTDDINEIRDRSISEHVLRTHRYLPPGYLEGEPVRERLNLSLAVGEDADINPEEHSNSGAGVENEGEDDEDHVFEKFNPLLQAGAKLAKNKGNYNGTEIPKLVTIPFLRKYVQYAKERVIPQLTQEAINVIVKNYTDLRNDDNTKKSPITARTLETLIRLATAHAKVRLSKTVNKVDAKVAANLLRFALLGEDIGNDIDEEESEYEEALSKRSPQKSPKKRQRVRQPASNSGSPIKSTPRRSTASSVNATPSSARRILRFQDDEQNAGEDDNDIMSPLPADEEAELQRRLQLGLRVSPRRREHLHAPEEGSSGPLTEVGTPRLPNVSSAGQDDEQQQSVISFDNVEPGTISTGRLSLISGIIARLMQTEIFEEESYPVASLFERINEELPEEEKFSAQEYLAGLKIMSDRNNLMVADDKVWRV

B1: yeast Mcm7 (subunit of CMG) (natural protein)
chain: MSAALPSIQLPVDYNNLFNEITDFLVTFKQDTLSSDATRNENEDENLDAENIEQHLLEKGPKYMAMLQKVANRELNSVIIDLDDILQYQNEKFLQGTQADDLVSAIQQNANHFTELFCRAIDNNMPLPTKEIDYKDDVLDVILNQRRLRNERMLSDRTNEIRSENLMDTTMDPPSSMNDALREVVEDETELFPPNLTRRYFLYFKPLSQNCARRYRKKAISSKPLSVRQIKGDFLGQLITVRGIITRVSDVKPAVEVIAYTCDQCGYEVFQEVNSRTFTPLSECTSEECSQNQTKGQLFMSTRASKFSAFQECKIQELSQQVPVGHIPRSLNIHVNGTLVRSLSPGDIVDVTGIFLPAPYTGFKALKAGLLTETYLEAQFVRQHKKKFASFSLTSDVEERVMELITSGDVYNRLAKSIAPEIYGNLDVKKALLLLLVGGVDKRVGDGMKIRGDINVCLMGDPGVAKSQLLKAICKISPRGVYTTGKGSSGVGLTAAVMKDPVTDEMILEGGALVLADNGICCIDEFDKMDESDRTAIHEVMEQQTISISKAGINTTLNARTSILAAANPLYGRYNPRLSPLDNINLPAALLSRFDILFLMLDIPSRDDDEKLAEHVTYVHMHNKQPDLDFTPVEPSKMREYIAYAKTKRPVMSEAVNDYVVQAYIRLRQDSKREMDSKFSFGQATPRTLLGIIRLSQALAKLRLADMVDIDDVEEALRLVRVSKESLYQETNKSKEDESPTTKIFTIIKKMLQETGKNTLSYENIVKTVRLRGFTMLQLSNCIQEYSYLNVWHLINEGNTLKFVDDGTMDTDQEDSLVSTPKLAPQTTASANVSAQDSDIDLQDA
On to B1, for which the binding result in experiment [1] and in experiment [2] was “binds” throughout.
